From US20260248925A1 come the findings set out here.

This experiment deals with PTH receptor (PTHR1) (human) (UniProt Q03431). The experiment in a line: cell-based or functional assay.
Chain of UniProt Q03431 (Q03431 27-593): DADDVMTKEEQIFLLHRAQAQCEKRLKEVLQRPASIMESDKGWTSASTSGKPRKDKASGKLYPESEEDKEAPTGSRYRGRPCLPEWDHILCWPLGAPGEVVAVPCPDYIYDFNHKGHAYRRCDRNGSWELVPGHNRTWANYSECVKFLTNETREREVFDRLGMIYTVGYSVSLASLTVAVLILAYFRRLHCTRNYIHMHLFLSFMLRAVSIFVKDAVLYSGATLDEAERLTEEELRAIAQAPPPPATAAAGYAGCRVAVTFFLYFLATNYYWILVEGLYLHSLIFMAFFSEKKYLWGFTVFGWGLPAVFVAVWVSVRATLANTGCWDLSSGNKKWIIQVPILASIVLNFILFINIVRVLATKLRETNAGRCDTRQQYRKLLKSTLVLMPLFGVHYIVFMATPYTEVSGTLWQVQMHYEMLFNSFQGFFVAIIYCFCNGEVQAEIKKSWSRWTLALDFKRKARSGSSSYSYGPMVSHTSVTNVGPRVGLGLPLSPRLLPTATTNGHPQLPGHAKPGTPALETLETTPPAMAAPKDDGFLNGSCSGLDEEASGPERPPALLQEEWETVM

PTH (ligand): the EC50 (cAMP, PTH1 cellular assay) worked out at 1.4 nM and the Maximal response is 105%.
